Measured values reported in article PMC9168619 (The Journal of Biological Chemistry, 2022).

Biological target: T1, Nup98 (human (endogenous in HeLa), UniProt P52948 1-880)
T1 construct: Nup98, the N-terminal product of the autoproteolytic cleavage of the Nup98-Nup96 precursor
T1 sequence (looked up): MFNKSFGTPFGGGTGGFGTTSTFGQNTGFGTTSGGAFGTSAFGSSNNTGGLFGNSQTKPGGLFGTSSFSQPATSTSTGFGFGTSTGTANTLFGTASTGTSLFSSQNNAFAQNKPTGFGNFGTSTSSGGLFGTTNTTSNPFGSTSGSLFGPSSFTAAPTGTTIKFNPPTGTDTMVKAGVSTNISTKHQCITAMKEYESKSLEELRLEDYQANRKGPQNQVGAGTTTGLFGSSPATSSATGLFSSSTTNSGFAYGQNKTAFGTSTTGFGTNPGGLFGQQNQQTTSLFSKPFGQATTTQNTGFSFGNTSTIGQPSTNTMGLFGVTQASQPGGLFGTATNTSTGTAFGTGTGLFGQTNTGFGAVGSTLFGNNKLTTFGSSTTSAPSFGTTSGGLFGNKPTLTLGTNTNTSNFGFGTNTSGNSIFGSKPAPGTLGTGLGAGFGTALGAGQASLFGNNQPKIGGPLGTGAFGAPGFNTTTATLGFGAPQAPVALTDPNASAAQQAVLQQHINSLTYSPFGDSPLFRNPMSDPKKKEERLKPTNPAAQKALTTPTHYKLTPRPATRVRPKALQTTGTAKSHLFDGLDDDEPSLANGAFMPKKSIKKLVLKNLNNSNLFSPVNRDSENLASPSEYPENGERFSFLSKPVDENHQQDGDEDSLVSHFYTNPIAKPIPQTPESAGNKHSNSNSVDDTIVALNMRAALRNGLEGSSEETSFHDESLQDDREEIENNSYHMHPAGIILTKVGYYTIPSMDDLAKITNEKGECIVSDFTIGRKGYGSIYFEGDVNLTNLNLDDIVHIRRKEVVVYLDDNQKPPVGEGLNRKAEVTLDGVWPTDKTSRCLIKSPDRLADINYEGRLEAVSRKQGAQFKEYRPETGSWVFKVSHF
Assay: […] 300 mM NaCl, 20 mM Hepes pH 7.4, 0.5% Triton X-100; +4 °C; […]
Settings: partners not purified

B1: Rae1 (natural protein, human (endogenous in HeLa), UniProt P78406 1-368, looked up)
chain: MSLFGTTSGFGTSGTSMFGSATTDNHNPMKDIEVTSSPDDSIGCLSFSPPTLPGNFLIAGSWANDVRCWEVQDSGQTIPKAQQMHTGPVLDVCWSDDGSKVFTASCDKTAKMWDLSSNQAIQIAQHDAPVKTIHWIKAPNYSCVMTGSWDKTLKFWDTRSSNPMMVLQLPERCYCADVIYPMAVVATAERGLIVYQLENQPSEFRRIESPLKHQHRCVAIFKDKQNKPTGFALGSIEGRVAIHYINPPNPAKDNFTFKCHRSNGTNTSAPQDIYAVNGIAFHPVHGTLATVGSDGRFSFWDKDARTKLKTSEQLDQPISACCFNHNGNIFAYASSYDWSKGHEFYNPQKKNYIFLRNAAEELKPRNKK
notes: Rae1, shuttling mRNA export factor
How did the “stoichiometry N” value turn out when B1 was run?
The value was ~1 Nup98:Rae1.
